In patent US20080293081A1, “Fluorescence Polarization Assays for Acetyltransferase/Deacetylase Activity” (Sirtris Pharmaceuticals, Inc., priority 2005, published 2008):
No end group written: not given here.

Key:
[1] = molecular target: T1, Sirt2 (Homo sapiens, UniProt Q8IXJ6); conditions: Km of NAD with the named peptide substrate; Sirt2, FRET, Marcotte et al.; cited from earlier work
T1 sequence (Q8IXJ6 1-389): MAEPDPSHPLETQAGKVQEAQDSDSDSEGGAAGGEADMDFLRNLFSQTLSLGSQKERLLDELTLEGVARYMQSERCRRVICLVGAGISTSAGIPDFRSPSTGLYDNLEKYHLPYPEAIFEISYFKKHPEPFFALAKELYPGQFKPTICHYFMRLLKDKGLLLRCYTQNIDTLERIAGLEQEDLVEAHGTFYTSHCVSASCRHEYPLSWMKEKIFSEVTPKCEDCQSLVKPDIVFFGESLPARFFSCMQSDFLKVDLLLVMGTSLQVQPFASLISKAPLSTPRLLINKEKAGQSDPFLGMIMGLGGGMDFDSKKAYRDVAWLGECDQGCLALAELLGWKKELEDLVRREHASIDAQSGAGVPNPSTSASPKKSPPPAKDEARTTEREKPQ

[2] = molecular target: T2, SIRT1 (Homo sapiens, UniProt Q96EB6); conditions: Km of NAD with the named peptide substrate; Sirt1, FRET, Marcotte et al.; cited from earlier work
T2 sequence (Q96EB6 1-747): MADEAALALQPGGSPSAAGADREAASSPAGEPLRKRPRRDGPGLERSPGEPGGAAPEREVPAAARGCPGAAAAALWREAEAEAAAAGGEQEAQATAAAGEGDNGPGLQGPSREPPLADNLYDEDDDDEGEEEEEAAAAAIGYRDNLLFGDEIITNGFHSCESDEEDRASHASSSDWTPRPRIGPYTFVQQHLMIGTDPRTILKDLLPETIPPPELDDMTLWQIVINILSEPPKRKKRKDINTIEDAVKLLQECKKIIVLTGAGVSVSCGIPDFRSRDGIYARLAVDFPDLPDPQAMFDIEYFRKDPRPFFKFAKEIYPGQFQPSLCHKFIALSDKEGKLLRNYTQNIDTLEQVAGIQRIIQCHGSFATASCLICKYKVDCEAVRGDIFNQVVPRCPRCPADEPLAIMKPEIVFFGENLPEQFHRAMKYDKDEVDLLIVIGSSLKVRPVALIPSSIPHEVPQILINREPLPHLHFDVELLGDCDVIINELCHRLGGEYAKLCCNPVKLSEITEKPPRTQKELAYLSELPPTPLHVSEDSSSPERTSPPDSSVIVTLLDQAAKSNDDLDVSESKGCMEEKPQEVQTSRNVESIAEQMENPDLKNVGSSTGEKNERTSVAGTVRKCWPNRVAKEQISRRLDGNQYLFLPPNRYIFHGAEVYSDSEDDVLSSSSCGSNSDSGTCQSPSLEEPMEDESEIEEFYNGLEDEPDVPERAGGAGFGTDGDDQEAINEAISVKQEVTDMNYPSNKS

[3] = molecular target: T3, Biotin-Nle-PSD-K(Ac)-TIGG-K(MR121)-NH2
T3 chain: XPSDKTIGGK

[4] = molecular target: T4, Ac-EE-K(biotin)-GQSTSSHS-K(Ac)-Nle-STEG-K(5-TMR)-EE-NH2
T4 chain: GQSTSSHSKXSTEGKEE

Question: Which results are given for “p53 20 mer (aa 372-387) *FL: p53 20 mer (aa 372-387) peptide substrate with fluorescent label, FRET assay of Marcotte et al. (KKGQSTSRHKKLMFKT; also: fluorescent label, position not given here; UniProt P04637 372-387, looked up, fragment)”?
Answer: Km [1]: 42 µM; Km [2]: 90 µM

B1: Human SIRT2 enzyme (protein)
chain: T1 sequence (Q8IXJ6 1-389)
Question: Which Peptide Km (uM), fluorescent polarization deacetylase assay [3] does the source give for B1 here?
Answer: 50 µM

B2: SIRT1 (protein)
chain: T2 sequence (Q96EB6 1-747)
Question: Which Peptide Km (uM), fluorescent polarization deacetylase assay [4] does the source give for B2 here?
Answer: 7.8 µM
